Results published in patent publication US11548942B2, “Methods of treating a wasting syndrome, increasing growth hormone levels, and increasing GHSR activity with a LEAP2 antibody” (NGM Biopharmaceuticals, Inc., priority 2017, dated 2023).

How the values were obtained:
food intake = assay: Food intake in mice; assay type: in vivo
Method: Mice were housed in individual cages and food intake was measured at 0.5, 1, and 2 hours.
Mice were subcutaneously injected with 0.15 μmol/kg or 3 μmol/kg LEAP2.

endogenous LEAP2 = molecular target: T1, endogenous LEAP2 (Mus musculus, UniProt Q91V13); assay: Growth hormone release after fasting and anti-LEAP2 antibody treatment; assay type: in vivo, mice; conditions: 10 mg/kg i.p. after 24 hour fasting
T1 construct: The mature form of LEAP2 found in circulation is a 40 amino acid cationic bicyclic peptide; from tissue; host or cells: live fasted mice; circulating endogenous LEAP2
T1 sequence (Q91V13 37-76): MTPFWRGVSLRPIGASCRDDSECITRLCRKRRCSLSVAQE
Method: FIG. 10C illustrates the experimental design for evaluating the impact of anti-LEAP2 antibodies on growth hormone release. Following a 24 hour fasting period, a baseline blood sample was taken, and anti-LEAP2 antibodies (10 mg/kg) were administered by intraperitoneal injection. Growth hormone levels were determined at 5, 10, 30, 60, 90, and 120 minutes post-injection.

[1] = Growth hormone infusion during chronic calorie restriction in LEAP2-expressing mice; assay type: in vivo; conditions: growth hormone pumps 0.5 μg/hr s.c.
Method: As described above, two weeks before initiation of calorie restriction, 2-3 month-old male mice were administered AAV-LEAP2 or AAV-GFP by tail vein injection. Diet treatment groups and measurements were the same as above. For growth hormone infusion, Alzet® osmotic mini-pumps filled with recombinant rat growth hormone (GroPep Bioreagents) or vehicle were implanted subcutaneously in the interscapular region. Growth hormone concentration in the pumps was 2 mg/ml and the growth hormone was delivered at a rate of 0.25 μl/hr (0.5 μg/hr).
FIG. 8A illustrates the experimental design for growth hormone infusion during chronic calorie restriction. The delivery efficiency of growth hormone was confirmed in a separate group of naïve mice kept in ad libitum conditions over 2 weeks. […] Osmotic pumps were implanted 3 days before initiation of calorie restriction. […] In LEAP2-expressing mice implanted with growth hormone pumps, 60% were able to maintain stable levels of blood glucose and survived to the end of the experiment. […] FIG. 8C presents a Kaplan-Meier survival curve of the mice from this experiment.

For `CCCCCCCC(=O)OC[C@H](NC(=O)[C@H](CO)NC(=O)CN)C(=O)N[C@@H](Cc1ccccc1)C(=O)N[C@@H](CC(C)C)C(=O)N[C@@H](CO)C(=O)N1CCC[C@H]1C(=O)N[C@@H](CCC(=O)O)C(=O)N[C@@H](Cc1c[nH]cn1)C(=O)N[C@@H](CCC(N)=O)C(=O)N[C@@H](CCCNC(=N)N)C(=O)N[C@H](C(=O)N[C@@H](CCC(N)=O)C(=O)N[C@@H](CCC(N)=O)C(=O)N[C@@H](CCCNC(=N)N)C(=O)N[C@@H](CCCCN)C(=O)N[C@@H](CCC(=O)O)C(=O)N[C@@H](CO)C(=O)N[C@@H](CCCCN)C(=O)N[C@@H](CCCCN)C(=O)N1CCC[C@H]1C(=O)N1CCC[C@H]1C(=O)N[C@@H](C)C(=O)N[C@@H](CCCCN)C(=O)N[C@@H](CC(C)C)C(=O)N[C@@H](CCC(N)=O)C(=O)N1CCC[C@H]1C(=O)N[C@@H](CCCNC(=N)N)C(=O)O)C(C)C` [ghrelin], the food intake (food intake; ghrelin 0.03 μmol/kg s.c.) was “only slightly increased” and the food intake (food intake; ghrelin 0.15 μmol/kg s.c., 1 and 2 hour time points) was “significantly promote food intake”.

B1: M18: mouse hybridoma anti-LEAP2 monoclonal antibody, VH SEQ ID NO:9, VL SEQ ID NO:10 (antibody, V domains shown)
VH: EIQLQQSGPELMKPGASVKISCKASGYSFTNYYIHWVKQSHGKSLEWIGYIDPFNGGTNYNQKFKGKATLTVDKSSSTAYMHLSSLTFEDSAVYYCARRGYYYGFTYWGQGTLVTVSA
VL: DIVLTQSPASLAVSLGQRATISCKASQSVDYDGDSYMNWYQQKPGQPPKLLIYTASNLESGIPARFSGSGSGTDFTLNIHPVEEEDAATYYCQQSNEDPYTFGGGTKLEIK
For B1, the “total amount of growth hormone released (AUC)” value (endogenous LEAP2) was “increased the total amount of growth hormone released” and the “peak of growth hormone secretion” value (endogenous LEAP2; versus control antibody) was “increased the peak of growth hormone secretion”.

B2: growth hormone: recombinant rat growth hormone (GroPep Bioreagents) delivered by Alzet osmotic mini-pumps (protein, UniProt P01244 27-216, looked up)
Somatotropin: FPAMPLSSLFANAVLRAQHLHQLAADTYKEFERAYIPEGQRYSIQNAQAAFCFSETIPAPTGKEEAQQRTDMELLRFSLLLIQSWLGPVQFLSRIFTNSLMFGTSDRVYEKLKDLEEGIQALMQELEDGSPRIGQILKQTYDKFDANMRSDDALLKNYGLLSCFKKDLHKAETYLRVMKCRRFAESSCAF
In the case of B2, the “LEAP2-expressing mice able to maintain stable blood glucose and surviving to the end of the experiment” value [1] is reported as 60%.
